Assay results from the supplement of paper PMC10724198.

Columns and labels:
Saccharomyces cerevisiae [1] = assay: protein stability index of tFT-peptide fusion in deletion strain of DOA10 (PSI (0-1 scale)); higher = more stable (slower turnover)
Experimental: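 MPS profiling in S. cerevisiae of two library types built from selected 12-aa C-degron peptides (IN1, IN2, LN1, LN3, VN2, R1-R5, W1-W3, Atg1 and Rpa12 C-termini): saturation mutagenesis libraries and C-terminal +1 capping libraries (13 aa). Each peptide is fused to the C-terminus of a sfGFP-mCherry timer, after a GGGS linker. Cells are FACS-sorted into 8 mCherry/sfGFP bins and sequenced. PSI runs from 0 (unstable) to 1 (stable), measured once in wild type and in the das1Δ or doa10Δ background.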

Saccharomyces cerevisiae [2] = assay: protein stability index of tFT-peptide fusion in wild type (PSI (0-1 scale)); higher = more stable (slower turnover); conditions: genetic background: wild type
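Wherever protein stability index of tFT-peptide fusion in deletion strain of DOA10 is given: PSI per variant is the weighted mean of its sequencing read distribution over the sorted stability bins, counting only variants with over 10 reads summed across bins.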
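Wherever protein stability index of tFT-peptide fusion in wild type is given: PSI derived as read-weighted mean over the 8 sorting bins, only variants exceeding 10 total reads kept, mCherry placed adjacent to the peptide and sfGFP distal.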

Row | Sequence | protein stability index (Saccharomyces cerevisiae [1]) | protein stability index (Saccharomyces cerevisiae [2])
1 | AITLPMCPLLLRF | 0.615 | 0.121
2 | AITLPMCPLLMR | 0.606 | 0.302
3 | AITLPMCPLLQR | 0.671 | 0.626
4 | AITLPMCPLLWR | 0.634 | 0.326
5 | AITLPMCPLMLR | 0.611 | 0.212
6 | AITLPMCPLPLR | 0.664 | 0.648
7 | AITLPMCPQLLR | 0.688 | 0.64
8 | AITLPMCPSLLR | 0.68 | 0.647
9 | AITLPMCYLLLR | 0.638 | 0.0897
10 | AITLPMIPLLLR | 0.595 | 0.115
11 | AITLSMCPLLLR | 0.653 | 0.311
12 | AITNPMCPLLLR | 0.658 | 0.488
13 | AITRPMCPLLLR | 0.65 | 0.393
14 | CHVSLPILLFFR | 0.624 | 0.0491
15 | CLVSHPILLFFR | 0.617 | 0.149
16 | CLVSLPALLFFR | 0.664 | 0.0784
17 | CLVSLPIDLFFR | 0.698 | 0.648
18 | CLVSLPIFLFFR | 0.591 | 0.0521
19 | CLVSLPILLFAR | 0.239 | 0.161
20 | CLVSLPILLFER | 0.625 | 0.569
21 | CLVSLPILLFFRR | 0.593 | 0.0999
22 | CLVSLPILLFRR | 0.66 | 0.43
23 | CLVSLPILLFSR | 0.486 | 0.391

Row | Sequence | protein stability index (Saccharomyces cerevisiae [1]) | protein stability index (Saccharomyces cerevisiae [2])
24 | CLVSLPIRLFFR | 0.658 | 0.0878
25 | CLVSLPYLLFFR | 0.64 | 0.0667
26 | CLVSLTILLFFR | 0.263 | 0.185
27 | CLVSPPILLFFR | 0.651 | 0.0809
28 | CYVSLPILLFFR | 0.582 | 0.0495
29 | EITLPMCPLLLR | 0.656 | 0.338
30 | FVTRLDAIYFRI | 0.549 | 0.189
31 | GHYMCSVGCWFR | 0.643 | 0.365
32 | GLDMCSVGCWFR | 0.689 | 0.328
33 | GLEMCSVGCWFR | 0.658 | 0.241
34 | GLFMCSVGCWFR | 0.549 | 0.264
35 | GLYFCSVGCWFR | 0.607 | 0.202
36 | GLYMCDVGCWFR | 0.699 | 0.59
37 | GLYMCSAGCWFR | 0.696 | 0.427
38 | GLYMCSVGCLFR | 0.654 | 0.575
39 | GLYMCSVGCNFR | 0.648 | 0.632
40 | GLYMCSVGCWAR | 0.5 | 0.438
41 | GLYMCSVGCWFRE | 0.641 | 0.453
42 | GLYMCSVGCWFRM | 0.374 | 0.154
43 | GLYMCSVGCWFRV | 0.402 | 0.155
44 | GLYMCSVGCWFT | 0.484 | 0.423
45 | GLYMCSVGCWMR | 0.575 | 0.253
46 | GLYMCSVGCWPR | 0.67 | 0.64

Row | Sequence | protein stability index (Saccharomyces cerevisiae [1]) | protein stability index (Saccharomyces cerevisiae [2])
47 | GLYMCSVGCWQR | 0.677 | 0.629
48 | GLYMCSVGFWFR | 0.545 | 0.364
49 | GLYMCSVGPWFR | 0.688 | 0.656
50 | GLYMCSVGQWFR | 0.671 | 0.636
51 | GLYMCSVGWWFR | 0.557 | 0.499
52 | GLYMCYVGCWFR | 0.423 | 0.223
53 | GLYMQSVGCWFR | 0.678 | 0.287
54 | GLYMTSVGCWFR | 0.709 | 0.275
55 | GLYVCSVGCWFR | 0.573 | 0.2
56 | HVTRLDAIYFRI | 0.702 | 0.343
57 | IITLPMCPLLLR | 0.597 | 0.324
58 | LVTRLDAIYFRI | 0.604 | 0.234
59 | MVTRLDAIYFRI | 0.653 | 0.237
60 | NLVSLPILLFFR | 0.629 | 0.0961
61 | PITLPMCPLLLR | 0.648 | 0.471
62 | PSLRVLLPLYFR | 0.679 | 0.285
63 | PVTRLDAIYFRI | 0.693 | 0.425
64 | RSCRVLLPLYFR | 0.66 | 0.275
65 | RSLDVLLPLYFR | 0.685 | 0.244
66 | RSLFVLLPLYFR | 0.613 | 0.265
67 | RSLLVLLPLYFR | 0.638 | 0.344
68 | RSLRDLLPLYFR | 0.702 | 0.507
69 | RSLRELLPLYFR | 0.698 | 0.476

Row | Sequence | protein stability index (Saccharomyces cerevisiae [1]) | protein stability index (Saccharomyces cerevisiae [2])
70 | RSLRHLLPLYFR | 0.693 | 0.45
71 | RSLRVGLPLYFR | 0.665 | 0.287
72 | RSLRVKLPLYFR | 0.667 | 0.195
73 | RSLRVLGPLYFR | 0.687 | 0.344
74 | RSLRVLLDLYFR | 0.654 | 0.64
75 | RSLRVLLPAYFR | 0.65 | 0.577
76 | RSLRVLLPHYFR | 0.683 | 0.663
77 | RSLRVLLPLLFR | 0.661 | 0.371
78 | RSLRVLLPLYFP | 0.657 | 0.634
79 | RSLRVLLPLYFRC | 0.476 | 0.218
80 | RSLRVLLPLYFRY | 0.606 | 0.259
81 | RSLRVLLPMYFR | 0.658 | 0.334
82 | RSLRVLLPNYFR | 0.673 | 0.64
83 | RSLRVLLPRYFR | 0.664 | 0.637
84 | RSLRVLLPVYFR | 0.632 | 0.278
85 | RSLRVLLPWYFR | 0.666 | 0.606
86 | RSLRVLPPLYFR | 0.697 | 0.273
87 | RSLRVLTPLYFR | 0.68 | 0.246
88 | RSLYVLLPLYFR | 0.619 | 0.261
89 | RVTMLDAIYFRI | 0.614 | 0.52
